What was measured:
Test in all cases: Radioligand binding
WT RAMP1/CLR = biological target: T1, WT RAMP1/CLR (Homo sapiens, UniProt O60894+Q16602); conditions: WT CLR/RAMP1, Cos7 membranes
T1 construct: expressed in transfected cells; host or cells: Cos7 (membranes)
Protocol: (§1) This was performed on membranes made from transfected Cos7 cells, essentially as described elsewhere. […] Incubations were terminated by centrifugation.
(§2) Radioligand binding data were analysed in Graphpad Prism as described for the cAMP assays.

N305A RAMP2/CLR = biological target: T2, N305A RAMP2/CLR (Homo sapiens, UniProt O60895+Q16602, N305A); conditions: 125I-AM bound (span of displacement curve) normalized to WT, n = 3
T2 construct: expressed in transfected cells; host or cells: Cos7 (membranes)
Protocol: as §1, §2

E348A RAMP2/CLR = biological target: T3, E348A RAMP2/CLR (Homo sapiens, UniProt O60895+Q16602, E348A); conditions: 125I-AM bound (span of displacement curve) normalized to WT, n = 3
T3 construct: expressed in transfected cells; host or cells: Cos7 (membranes)
Protocol: as §1, §2

M230A RAMP2/CLR = biological target: T4, M230A RAMP2/CLR (Homo sapiens, UniProt O60895+Q16602, M230A); conditions: 125I-AM bound (span of displacement curve) normalized to WT, n = 3
T4 construct: expressed in transfected cells; host or cells: Cos7 (membranes)
Protocol: as §1, §2

H374A RAMP1/CLR = biological target: T5, H374A RAMP1/CLR (Homo sapiens, UniProt O60894+Q16602, H374A); conditions: H374A CLR/RAMP1, Cos7 membranes
T5 construct: expressed in transfected cells; host or cells: Cos7 (membranes)
Protocol: as §1, §2

F349A RAMP2/CLR = biological target: T6, F349A RAMP2/CLR (Homo sapiens, UniProt O60895+Q16602, F349A); conditions: 125I-AM bound (span of displacement curve) normalized to WT, n = 3
T6 construct: expressed in transfected cells; host or cells: Cos7 (membranes)
Protocol: as §1, §2

V198A RAMP2/CLR = system: V198A RAMP2/CLR; design: species or system human; conditions: 125I-AM bound (span of displacement curve) normalized to WT, n = 3
Protocol: as §1
Radioligand binding data were analysed in Graphpad Prism as described for the cAMP assays. […] Thus for each mutant, the total specific binding relative to WT was calculated from the span values and the 95% confidence limits were calculated. This relies on the Bmax value not changing; while this is consistent with our ELISA data, we cannot rule out a contribution to […] arising from a small change in receptor expression.

T2 sequence (Q16602 23-461 N305A): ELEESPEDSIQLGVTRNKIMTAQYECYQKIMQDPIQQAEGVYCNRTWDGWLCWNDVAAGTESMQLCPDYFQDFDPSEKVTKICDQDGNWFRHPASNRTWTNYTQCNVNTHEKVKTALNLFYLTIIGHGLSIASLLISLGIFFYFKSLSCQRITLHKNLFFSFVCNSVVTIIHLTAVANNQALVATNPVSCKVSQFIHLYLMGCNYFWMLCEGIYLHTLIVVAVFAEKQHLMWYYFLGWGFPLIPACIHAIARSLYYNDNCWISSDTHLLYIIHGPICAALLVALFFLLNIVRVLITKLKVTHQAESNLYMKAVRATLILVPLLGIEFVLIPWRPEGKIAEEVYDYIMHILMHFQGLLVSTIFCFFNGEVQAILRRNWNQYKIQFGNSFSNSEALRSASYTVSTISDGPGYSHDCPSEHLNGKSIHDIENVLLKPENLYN
T2 sequence (O60895 43-175): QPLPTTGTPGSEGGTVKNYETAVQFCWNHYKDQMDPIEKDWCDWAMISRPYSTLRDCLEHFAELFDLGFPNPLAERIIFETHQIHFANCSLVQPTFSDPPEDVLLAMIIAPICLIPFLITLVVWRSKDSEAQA
T4 sequence (Q16602 23-461 M230A): as the sequence (Q16602 23-461 N305A) above, with M208A, A283N counted along it
T4 sequence (O60895 43-175): as the sequence (O60895 43-175) above
T6 sequence (Q16602 23-461 F349A): as the sequence (Q16602 23-461 N305A) above, with A283N, F327A counted along it
T6 sequence (O60895 43-175): as the sequence (O60895 43-175) above
T1 sequence (Q16602 23-461): as the sequence (Q16602 23-461 N305A) above, with A283N counted along it
T1 sequence (O60894 27-148): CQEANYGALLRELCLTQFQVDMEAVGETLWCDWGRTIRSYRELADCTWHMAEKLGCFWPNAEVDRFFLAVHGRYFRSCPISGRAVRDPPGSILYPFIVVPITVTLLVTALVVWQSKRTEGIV
T3 sequence (Q16602 23-461 E348A): as the sequence (Q16602 23-461 N305A) above, with A283N, E326A counted along it
T3 sequence (O60895 43-175): as the sequence (O60895 43-175) above
T5 sequence (Q16602 23-461 H374A): as the sequence (Q16602 23-461 N305A) above, with A283N, H352A counted along it
T5 sequence (O60894 27-148): as the sequence (O60894 27-148) above

specific binding of 125I-AM (WT RAMP1/CLR): 78 ± 208 dpm/mg
% Ligand bound (N305A RAMP2/CLR): 62.7 ± 4.7 %
% Ligand bound (E348A RAMP2/CLR): 147.9 ± 2.9 %
% Ligand bound (M230A RAMP2/CLR): 109.4 ± 3.7%
specific binding of 125I-AM (H374A RAMP1/CLR): 5243 ± 112 dpm/mg
% Ligand bound (F349A RAMP2/CLR): 132.3 ± 4.3 %
% Ligand bound (V198A RAMP2/CLR): 116.2 ± 3.7 %
Substance: [^125I]-human (13–52) iodotyrosyl^52adrenomedullin [125I-AM]
